The target in this test is T1, IGF-II receptor (Homo sapiens, UniProt P11717).
T1 construct: membrane extracts of postmortem frontal lobe tissue as the sources of receptors; from tissue; host or cells: postmortem frontal lobe tissue, homogenates pooled per Braak stage group
The experiment in a line: Saturation binding (Scatchard) of [125I]-IGF-II to postmortem frontal lobe membrane extracts by AD Braak stage. On the set-up: unit not given here. Here is the method: Protein concentration was determined using the bicinchoninic acid (BCA) assay (Pierce, Rockford, Ill.). Preliminary studies determined the amounts of protein and concentrations of radiolabeled ligand required to achieve 20% specific binding.
IGF-I binding assays required 25 μg protein per sample, and IGF-II receptor binding assays were performed with 10 μg protein. Equilibrium binding assays were used to assess growth factor binding levels in relation to AD stage severity. This was accomplished by determining net specific binding after incubating the protein samples at 4° C. overnight with a fixed amount of radioligand, in the presence or absence of excess cold ligand and then subtracting the values obtained for non-specific binding from those corresponding to the total binding. To measure total binding, individual protein samples were incubated in 100 μl reactions containing binding buffer (100 mM HEPES, pH 8.0, 118 mM NaCl, 1.2 mM MgSO4, 8.8 mM dextrose, 5 mM KCl, 1% bovine serum albumin) and 100 nCi/ml [^125I] […] To measure non-specific binding, replicate samples were prepared as indicated with the addition of 0.1 μM unlabeled (cold) ligand.
Saturation binding assays were performed to assess top-level (maximum) binding and binding affinity in relation to AD stage severity. Samples from 8-12 brains per Braak stage group were pooled in equal proportions and used to generate binding curves. Protein concentrations of the pooled homogenates were determined with the BCA assay. Duplicate samples were incubated in 100 μl reaction volumes containing binding buffer and 0.0031 to 1 μCi/ml of [^125I] […] To measure non-specific binding, duplicate reactions were incubated with the same concentrations of radiolabeled ligand plus 0.1 μM unlabeled (cold) competitive ligand. The data were graphed and analyzed using the GraphPad Prism 4 software to calculate the Bmax, kD (dissociation constant), and their standard deviations and 95% confidence intervals.
Reactions were performed in 1.5 ml Eppendorff tubes at 4° C. for 16 hours with gentle platform agitation. […] The samples were counted for 1 minute each in an LKB CompuGamma CS Gamma counter. Specific binding was calculated by subtracting CPM or fmol of non-specific binding, i.e., amount bound in the presence of cold ligand, from the total CPM or fmol bound (absence of unlabeled competitive ligand). After determining that the data fit a one-site rather than a two-site model, the results were analyzed using non-linear regression to calculate saturation binding (Bmax) and binding affinity (kD) with Scatchard analysis performed to measure saturation binding and binding affinity using GraphPad Prism 4 software (GraphPad Software, Inc., San Diego, Calif.).

T1 sequence (P11717 41-2491): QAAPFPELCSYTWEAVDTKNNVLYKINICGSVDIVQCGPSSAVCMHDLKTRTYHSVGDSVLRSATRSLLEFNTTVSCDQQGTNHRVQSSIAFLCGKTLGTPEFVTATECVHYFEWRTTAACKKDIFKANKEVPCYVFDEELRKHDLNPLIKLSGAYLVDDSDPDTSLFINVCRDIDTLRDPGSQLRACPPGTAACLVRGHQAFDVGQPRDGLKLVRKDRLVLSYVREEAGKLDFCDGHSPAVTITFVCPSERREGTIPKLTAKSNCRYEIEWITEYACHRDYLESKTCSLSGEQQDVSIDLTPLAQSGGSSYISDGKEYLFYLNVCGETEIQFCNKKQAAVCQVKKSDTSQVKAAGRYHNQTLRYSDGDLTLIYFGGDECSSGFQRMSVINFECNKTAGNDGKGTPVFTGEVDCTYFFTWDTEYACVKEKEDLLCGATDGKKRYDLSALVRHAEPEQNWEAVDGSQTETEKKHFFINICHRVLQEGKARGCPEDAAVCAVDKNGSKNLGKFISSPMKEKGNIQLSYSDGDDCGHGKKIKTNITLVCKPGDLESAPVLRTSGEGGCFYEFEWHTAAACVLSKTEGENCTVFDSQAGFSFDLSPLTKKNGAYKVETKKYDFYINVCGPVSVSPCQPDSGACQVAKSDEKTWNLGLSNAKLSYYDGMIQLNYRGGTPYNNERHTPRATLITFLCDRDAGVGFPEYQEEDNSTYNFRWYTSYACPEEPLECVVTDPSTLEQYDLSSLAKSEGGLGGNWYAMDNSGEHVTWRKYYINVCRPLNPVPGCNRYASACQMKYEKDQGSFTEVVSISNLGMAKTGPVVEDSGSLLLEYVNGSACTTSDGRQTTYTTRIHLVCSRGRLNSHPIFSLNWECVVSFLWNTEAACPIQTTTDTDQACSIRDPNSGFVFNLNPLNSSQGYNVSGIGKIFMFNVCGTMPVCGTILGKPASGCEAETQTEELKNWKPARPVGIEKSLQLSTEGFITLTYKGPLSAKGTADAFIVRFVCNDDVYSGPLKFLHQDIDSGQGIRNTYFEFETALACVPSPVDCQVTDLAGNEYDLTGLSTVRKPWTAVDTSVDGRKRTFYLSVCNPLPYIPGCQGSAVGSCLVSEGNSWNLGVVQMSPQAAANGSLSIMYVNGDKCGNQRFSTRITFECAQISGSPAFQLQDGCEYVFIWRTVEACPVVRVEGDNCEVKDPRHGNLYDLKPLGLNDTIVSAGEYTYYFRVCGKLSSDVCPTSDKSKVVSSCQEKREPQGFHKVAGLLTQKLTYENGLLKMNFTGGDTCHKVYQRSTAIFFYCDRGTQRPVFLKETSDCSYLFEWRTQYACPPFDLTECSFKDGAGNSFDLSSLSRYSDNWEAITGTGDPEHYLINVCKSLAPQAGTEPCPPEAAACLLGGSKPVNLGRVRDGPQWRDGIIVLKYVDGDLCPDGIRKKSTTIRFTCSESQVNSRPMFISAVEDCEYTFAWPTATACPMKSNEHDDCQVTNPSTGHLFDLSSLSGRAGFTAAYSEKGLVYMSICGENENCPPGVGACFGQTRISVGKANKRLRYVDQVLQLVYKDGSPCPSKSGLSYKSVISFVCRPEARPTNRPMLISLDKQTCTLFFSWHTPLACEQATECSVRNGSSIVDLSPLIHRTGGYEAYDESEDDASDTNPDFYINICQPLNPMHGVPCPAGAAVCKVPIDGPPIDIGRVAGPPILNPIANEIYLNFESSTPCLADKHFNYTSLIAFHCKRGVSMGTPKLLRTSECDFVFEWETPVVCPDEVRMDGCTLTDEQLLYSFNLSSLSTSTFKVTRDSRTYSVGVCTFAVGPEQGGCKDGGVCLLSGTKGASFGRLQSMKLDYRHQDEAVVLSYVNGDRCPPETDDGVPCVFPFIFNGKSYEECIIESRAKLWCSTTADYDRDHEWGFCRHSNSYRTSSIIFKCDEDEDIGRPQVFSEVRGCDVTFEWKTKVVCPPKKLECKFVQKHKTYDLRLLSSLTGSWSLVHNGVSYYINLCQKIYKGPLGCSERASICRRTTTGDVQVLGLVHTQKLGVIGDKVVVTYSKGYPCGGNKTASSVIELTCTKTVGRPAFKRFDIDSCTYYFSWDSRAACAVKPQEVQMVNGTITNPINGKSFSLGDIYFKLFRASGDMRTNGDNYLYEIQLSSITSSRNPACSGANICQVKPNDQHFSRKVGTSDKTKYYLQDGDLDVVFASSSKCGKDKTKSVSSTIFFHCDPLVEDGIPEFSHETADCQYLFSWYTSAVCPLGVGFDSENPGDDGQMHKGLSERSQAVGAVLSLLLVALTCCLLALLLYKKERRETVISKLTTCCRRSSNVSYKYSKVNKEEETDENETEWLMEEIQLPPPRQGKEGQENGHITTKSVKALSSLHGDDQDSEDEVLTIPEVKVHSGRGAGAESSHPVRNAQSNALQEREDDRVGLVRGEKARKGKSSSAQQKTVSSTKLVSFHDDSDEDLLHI

Turning to “IGF-II: [125I]-labeled IGF-II used as tracer in brain membrane binding assays”, the “BMAX, IGF-II binding” value (Braak 0-1) is 16.83; the “BMAX, IGF-II binding” value (Braak 2-3) amounted to 12.53; the “BMAX, IGF-II binding” value (Braak 4-5) turned out to be 8.136; the “BMAX, IGF-II binding” value (Braak 6) was determined as 4.713.

(Values after patent US7833513B2, “Treatment of Alzheimer's Disease” (Rhode Island Hospital, priority 2004, dated 2010).)
